The experiment concerns the target Kelch domain of human Keap1 (residues 321-609) (human), Q14145. The experiment in a line: ITC. For orientation: Isothermal titration calorimetry measures the heat released or taken up as one component is titrated into another.
Sequence of Kelch domain of human Keap1 (residues 321-609) (human), Q14145 (Q14145 321-609): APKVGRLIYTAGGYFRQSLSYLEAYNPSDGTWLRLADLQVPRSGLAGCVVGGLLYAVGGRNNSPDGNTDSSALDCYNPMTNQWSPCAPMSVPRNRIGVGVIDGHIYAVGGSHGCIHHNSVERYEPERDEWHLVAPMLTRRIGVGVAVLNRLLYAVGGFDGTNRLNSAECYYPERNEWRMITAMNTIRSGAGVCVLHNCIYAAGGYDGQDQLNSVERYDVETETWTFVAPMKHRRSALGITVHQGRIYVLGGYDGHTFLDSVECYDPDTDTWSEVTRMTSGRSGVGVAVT
For the molecule ANGNANEENGEQEADNEVDE (modifications not checked) [PTMA isoform 2 peptide (20-mer)], the Kd – broadly, the concentration at which binding is half-saturated – amounted to 2620 nM; the dH was -17.3 kcal/mol; the stoichiometry N – broadly, a count of units in the complex or per binding partner – was found to be 1.05.

FAQLQLDPETGEFLPIQPAQ (modifications not checked) [NRF2 site 1 E78P peptide (20-mer)]: the dissociation constant Kd came out at 7 nM and the dH was -16.8 kcal/mol.

As to LSSKEVDPSTGELQSLQMPE (modifications not checked) [p62 peptide (20-mer)], the Kd worked out at 1300 nM.

Turning to ANGNAENEENGEQEADNEVD (modifications not checked) [PTMA isoform 1 peptide (20-mer)], the dissociation constant Kd was found to be 11600 nM, the dH was -14.7 kcal/mol and the stoichiometry N stood at 1.07.

Regarding FAQLQLDEETGEFLPIQPAQ (modifications not checked) [NRF2 site 1 peptide (20-mer)], the dissociation constant Kd amounted to 23 nM, the dH was -17 kcal/mol and the stoichiometry N was 1.08.
